Laboratory results reported in patent US20240343803A1 (SHANDONG SIMCERE BIOPHARMACEUTICAL, published 2024).

T1: Fusion protein of extracellular domain of human TIGIT and His-tag (human TIGIT ECD-his) (human)
T1 chain: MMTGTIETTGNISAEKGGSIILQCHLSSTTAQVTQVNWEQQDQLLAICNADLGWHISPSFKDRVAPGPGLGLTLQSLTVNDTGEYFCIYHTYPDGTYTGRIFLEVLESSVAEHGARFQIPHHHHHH

T2: Full-length human TIGIT on CHO-K1 cells (CHO-K1 human TIGIT) (human, UniProt Q495A1 22-244)
T2 construct: NCBI XP_024309156.1; the entry includes the signal peptide (limits not recoverable); The strain (high, medium, low) is named under assay; also called high expression strain 1D2; medium expression strain 2D10
T2 sequence: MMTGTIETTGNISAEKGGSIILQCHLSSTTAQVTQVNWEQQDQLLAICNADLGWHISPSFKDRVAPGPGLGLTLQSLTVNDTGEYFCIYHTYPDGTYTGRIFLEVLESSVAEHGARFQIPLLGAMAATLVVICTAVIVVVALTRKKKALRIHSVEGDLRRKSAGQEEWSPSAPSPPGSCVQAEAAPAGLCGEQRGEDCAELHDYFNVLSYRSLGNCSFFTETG

T3: Fusion protein of extracellular domain of human TIGIT and mouse IgG2a Fc fragment (human TIGIT ECD-mFc) (human)
T3 construct: The entry includes the signal peptide (limits not recoverable) and the mouse IgG2a Fc
T3 chain: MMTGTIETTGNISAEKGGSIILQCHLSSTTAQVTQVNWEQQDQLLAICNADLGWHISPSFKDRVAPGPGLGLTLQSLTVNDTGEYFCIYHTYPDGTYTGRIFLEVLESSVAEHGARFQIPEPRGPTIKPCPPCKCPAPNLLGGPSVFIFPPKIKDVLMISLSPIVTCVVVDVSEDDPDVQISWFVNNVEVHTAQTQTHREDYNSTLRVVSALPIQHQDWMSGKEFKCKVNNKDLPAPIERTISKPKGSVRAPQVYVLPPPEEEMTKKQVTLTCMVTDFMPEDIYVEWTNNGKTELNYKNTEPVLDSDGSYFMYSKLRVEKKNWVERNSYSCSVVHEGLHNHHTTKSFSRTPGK


Assays:
[1] = target: T4, Full-length cynomolgus monkey TIGIT on CHO-K1 cells (CHO-K1 cynomolgus monkey TIGIT) (cynomolgus monkey); test: cell binding, CHO-K1 cynomolgus monkey TIGIT
T4 construct: NCBI XP_015300911.1
Outline: (§1)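 Binding was measured by flow cytometry after a 60-minute, 4° C incubation of the antibodies with 2×10⁵ CHO-K1 cells displaying full-length human or cynomolgus monkey TIGIT. Antibody titration: 12 points, threefold serial dilution from 80 nM, in 1% BSA-PBS.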

[2] = target: T1, Fusion protein of extracellular domain …; test: BIAcore; reference itself
[3] = target: T1, Fusion protein of extracellular domain …; test: BIAcore
[4] = target: T2, Full-length human TIGIT on CHO-K1 cells …; test: cell binding, CHO-K1 human TIGIT high expression strain
Outline: as §1

[5] = target: T5, Fusion protein of extracellular domain of cynomolgus monkey TIGIT and mouse IgG2a Fc fragment (cynomolgus … (cynomolgus monkey)); test: ELISA, cynomolgus monkey TIGIT ECD-mFc
T5 construct: The entry includes the signal peptide (limits not recoverable) and the mouse IgG2a Fc
Outline: (§2)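 Antibodies diluted to 13 nM in 1% BSA, then 3-fold serial dilution for 12 concentrations, incubated with milk-blocked plates at 37° C for 1.5-2 h. Bound antibody detected with HRP-labelled secondary antibody (1:5000, 37° C, 1 h) and TMB, stopped with 1M HCl; OD450 nm read.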

[6] = target: T3, Fusion protein of extracellular domain …; test: ELISA, human TIGIT ECD-mFc
Outline: as §2

[7] = target: T6, Fusion protein of extracellular domain of human TIGIT and human IgG1 Fc fragment (human TIGIT ECD-hFc) (human); test: blocking of TIGIT ECD-hFc binding to CHO-K1 CD155 cells
T6 construct: The entry includes the signal peptide (limits not recoverable) and the human IgG1 Fc
Outline: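 Cell-based ELISA on CHO-K1 CD155 cells, cultured overnight, fixed and blocked with 5% skim milk-PBS. Antibodies were premixed for 0.5 h with human TIGIT ECD-hFc (working concentration 30 ng/mL), then added and held at 37° C for 1.5-2 h. Bound TIGIT was detected with HRP secondary antibody (1:5000, 37° C, 1 h) and TMB, read as OD450 nm. IC50 came from the inhibition curves.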

[8] = target: T1, Fusion protein of extracellular domain …; test: BIAcore; KD ratio, by the numbers to TIGIT-005-H2L1 of r33

T6 sequence (chain, as listed by the source limits assumed): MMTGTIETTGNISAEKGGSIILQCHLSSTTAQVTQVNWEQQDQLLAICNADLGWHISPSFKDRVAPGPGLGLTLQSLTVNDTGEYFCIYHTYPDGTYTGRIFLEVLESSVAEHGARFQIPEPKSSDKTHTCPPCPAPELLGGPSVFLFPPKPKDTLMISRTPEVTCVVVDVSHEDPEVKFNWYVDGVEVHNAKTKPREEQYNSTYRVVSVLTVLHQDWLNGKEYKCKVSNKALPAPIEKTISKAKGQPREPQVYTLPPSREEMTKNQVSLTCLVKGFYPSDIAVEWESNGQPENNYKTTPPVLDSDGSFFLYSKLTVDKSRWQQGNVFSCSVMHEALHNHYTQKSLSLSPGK
T4 sequence (chain, as listed by the source limits assumed): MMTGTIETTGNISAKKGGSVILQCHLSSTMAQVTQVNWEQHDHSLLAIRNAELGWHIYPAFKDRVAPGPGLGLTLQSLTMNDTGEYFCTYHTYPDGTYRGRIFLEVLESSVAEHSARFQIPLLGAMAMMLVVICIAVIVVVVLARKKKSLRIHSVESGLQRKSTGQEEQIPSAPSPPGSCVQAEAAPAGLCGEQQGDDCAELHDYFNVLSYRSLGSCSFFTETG
T5 sequence (chain, as listed by the source limits assumed): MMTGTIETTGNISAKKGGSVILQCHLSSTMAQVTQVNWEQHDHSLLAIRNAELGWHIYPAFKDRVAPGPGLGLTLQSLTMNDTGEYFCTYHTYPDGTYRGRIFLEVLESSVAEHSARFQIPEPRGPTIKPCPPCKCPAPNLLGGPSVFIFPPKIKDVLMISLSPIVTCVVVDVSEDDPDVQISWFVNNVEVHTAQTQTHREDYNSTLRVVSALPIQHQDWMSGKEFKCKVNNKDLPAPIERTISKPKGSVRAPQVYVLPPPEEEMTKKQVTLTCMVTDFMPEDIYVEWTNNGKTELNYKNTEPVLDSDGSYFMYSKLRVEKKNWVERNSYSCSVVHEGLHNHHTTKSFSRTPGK

| Binder | EC50 [1] [nM] | Fold change vs chimeric antibodies (KD) [2] [fold] | Kd [3] [nM] | koff [3] [s⁻¹] | kon [3] [M⁻¹ s⁻¹] | EC50 [4] [nM] | EC50 [5] [nM] | EC50 [6] [nM] | IC50 [7] [nM] | Fold change vs chimeric antibodies (KD) [8] [fold] |
| --- | --- | --- | --- | --- | --- | --- | --- | --- | --- | --- |
| TIGIT-CHI-005 (antibody, V domains shown, Human-mouse chimeric antibody) VH: QVQLQQSGAELVRPGTSVKVSCKASGYAFTNYLIEWVKQRPGQGLEWIGVINPGSGGTNYKEKFKGKATLTADKSSSTAYMQLSSLTSEDSAVYFCARGEYFFFDYWGQGTTLTVSS VL: DIVMTQSHKFMSTSVGDRVSITCKASQHVSNGVAWYQHKPGQSPKLLIYSASYRYTGVPDRFTGTGSGTDFTFTISSVQAEDLAVYYCQQHYNTPHTFGGGTKLEIK | 0.0265 | 1 | 0.0276 | 0.000113 | 4.76e+06 | 0.026 | 0.0165 | 0.019 | 0.36 | – |
| TIGIT-CHI-070 (antibody, V domains shown, Human-mouse chimeric antibody) VH: QVQLQQPGTELVKPGASVKLSCRASGYTFTNYYMHWVKQRPGRGLEWIGRIDPDSGGSKYNEKFKSKATLTVDKLSSTAYMQLSSLTSEDSAVYYCAREGHYGFYSDYWGQGTTLTVSS VL: DIQMTQSPASLSASVGETVTITCRVSENIYSYLAWYQQKQGKSPQLLVYNAKTLAEGVPSRFSGSGSGTQFSLKINSLQPEDFGNYYCQHHYGNPLTFGAGTKLDLK | 0.0741 | 1 | 0.098 | 0.000145 | 1.48e+06 | 0.033 | 0.0184 | 0.0159 | 0.637 | – |
| TIGIT-005-H2L1a (antibody, V domains shown, Humanized anti-TIGIT antibody with NG-site mutation in VL) VH: EVQLVQSGAEVKKPGASVKVSCKASGYAFTNYLIEWVRQAPGQRLEWMGVINPGSGGTNYKEKFKGRVTITADKSSSTAYMELSSLRSEDTAVYYCARGEYFFFDYWGQGTTVTVSS VL: DIVMTQSPDSLAVSLGERATINCKASQHVSQGVAWYQHKPGQSPKLLIYSASYRYTGVPDRFSGSGSGTDFTLTISSLQAEDVAVYYCQQHYNTPHTFGGGTKVEIK | 0.0561 | – | 3.71 | 0.0105 | 2.83e+06 | 0.0129 | 0.0357 | 0.0289 | 0.717 | 50 |
| TIGIT-005-H2L1c (antibody, V domains shown, Humanized anti-TIGIT antibody with NG-site mutation in VL) VH: EVQLVQSGAEVKKPGASVKVSCKASGYAFTNYLIEWVRQAPGQRLEWMGVINPGSGGTNYKEKFKGRVTITADKSSSTAYMELSSLRSEDTAVYYCARGEYFFFDYWGQGTTVTVSS VL: DIVMTQSPDSLAVSLGERATINCKASQHVSDGVAWYQHKPGQSPKLLIYSASYRYTGVPDRFSGSGSGTDFTLTISSLQAEDVAVYYCQQHYNTPHTFGGGTKVEIK | 0.0673 | – | 0.184 | 0.000459 | 2.49e+06 | 0.0246 | 0.0296 | 0.0268 | 0.347 | 2.48 |
| TIGIT-005-H2L1b (antibody, V domains shown, Humanized anti-TIGIT antibody with NG-site mutation in VL) VH: EVQLVQSGAEVKKPGASVKVSCKASGYAFTNYLIEWVRQAPGQRLEWMGVINPGSGGTNYKEKFKGRVTITADKSSSTAYMELSSLRSEDTAVYYCARGEYFFFDYWGQGTTVTVSS VL: DIVMTQSPDSLAVSLGERATINCKASQHVSTGVAWYQHKPGQSPKLLIYSASYRYTGVPDRFSGSGSGTDFTLTISSLQAEDVAVYYCQQHYNTPHTFGGGTKVEIK | 0.0368 | – | 0.734 | 0.00248 | 3.38e+06 | 0.0279 | 0.032 | 0.0238 | 0.358 | 9.89 |
| TIGIT-CHI-006 (antibody, V domains shown, Human-mouse chimeric antibody) VH: EVQLQESGPGLAKPSQTPSLTCSVTGYSMTSDYWNWIRKFPGNKLEYMGYISYSGRTYYNPSLKSRISITRDTSKNQFYLQLNSVTTEDTATYYCARGDYSNYGGAMYDWGQGTSVTVSS VL: DIVMTQSHKFMSTSVGDRVSITCRASQGVSTTIAWYQQKPGQSPKLLIYSASYRYTGVPDRFTGSGSGTDFTFTISGVQAEDLAVYYCQQYYSSPFTFGGGTKLEIK | 0.15 | 1 | 0.0774 | 0.000162 | 2.09e+06 | 0.0299 | 0.0258 | 0.0152 | 0.579 | – |
